The values below come from PMC8782923, “A Klotho-derived peptide protects against kidney fibrosis by targeting TGF-β signaling” (Nature Communications, 2022).

Broadly, the koff is the rate constant with which the complex falls apart. The Kd is the constant that tells how readily two partners part at equilibrium. One may read the kon as a measure of how fast the partners come together.

Ends that are not written are not given here.

Common to all, as to settings: both partners purified
Test [1] deals with T1, Human TβR2 (10358-H08B; Sino Biological Inc.) (human, UniProt P37173 23-166).
T1 construct: TGF-β receptor 2, human; source: bought: Sino Biological Inc
Kind of test: microplate-based fluorescence direct binding assay; TβR2 (10 μg/ml) or BSA coated on a 96-well microplate; FITC-peptide at 50 μg/ml, 1 h at room temperature, washed four times, fluorescence read.

For test [2], the target named is T2, Recombinant TGF-β receptor 2 protein (UniProt P37173 23-166).
T2 construct: TGF-β receptor 2, recombinant, 43.4 kDa, >95% by SDS-PAGE; By its catalogue number probably a human extracellular domain with a carrier tag, biotinylated (surmise); The TβR2 of the microplate assay (10358-H08B) is called human; also called TβR2; type 2 TGF-β receptor; source: bought: Sino Biological Inc. (10358-H03H-B)
Kind of test: SPR; Biacore T200, 25 °C; TβR2 amine-coupled on a CM5 chip (50 µg/ml in 10 mM acetate pH 4.0); peptides in PBS injected at 60 µl/min, 180 s association, 540 s dissociation; 1:1 binding model.

For test [3], the target named is T3, Recombinant TGF-β receptor 2 protein (10358-H03H-B; Sino Biological Inc.) (UniProt P37173 23-166).
T3 construct: TGF-β receptor 2, recombinant, 43.4 kDa; also called TβR2; type 2 TGF-β receptor; source: bought: Sino Biological Inc. (>95% as determined by SDS-PAGE)
Kind of test: SPR; Biacore T200, 25 °C; TβR2 amine-coupled to a CM5 chip; peptides in PBS injected at 60 μl/min, 180 s injection, 540 s dissociation; 1:1 binding model. (In general: Surface plasmon resonance follows binding to a sensor surface in real time, without labels.)

T3 sequence (P37173 23-166): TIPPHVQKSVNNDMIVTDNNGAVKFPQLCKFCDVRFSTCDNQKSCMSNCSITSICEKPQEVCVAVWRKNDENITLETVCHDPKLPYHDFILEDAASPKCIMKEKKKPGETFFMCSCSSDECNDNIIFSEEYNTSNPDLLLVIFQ
T1 sequence (P37173 23-166): as above
T2 sequence (P37173 23-166): as above

B1: FITC-labeled KP1 (peptide, UniProt Q9UEF7 57-86, looked up)
peptide: FQGTFPDGFLWAVGSAAYQTEGGWQQHGKG
modifications: also: FITC label, position not given here
notes: Klotho, human; peptide of 30 amino acids from Phe57 to Gly86; also called FITC-KP1; source: synthetic peptide, labeled with fluorescein isothiocyanate (FITC)
Consider B1, for which, in test [1], the binding result is on record as “binds”.

B2: Klotho-derived peptide 1 (peptide, UniProt Q9UEF7 57-86, looked up)
peptide: FQGTFPDGFLWAVGSAAYQTEGGWQQHGKG
notes: Klotho, human, 30 amino acids from Phe57 to Gly86; 3.229 kDa; also called KP1; source: synthetic peptide (GenScript, >95% purity)
Turning to B2, in test [2], the off-rate constant (koff) was 0.000578 s⁻¹.

B3: Klotho-derived peptide 1 (KP1) (peptide, UniProt Q9UEF7 57-86, looked up)
peptide: FQGTFPDGFLWAVGSAAYQTEGGWQQHGKG
notes: Klotho, human; peptide of 30 amino acids from Phe57 to Gly86; 3.229 kDa; the results give Phe57 to Gly86; source: synthetic peptide (GenScript, >95% purity)
On to B3, for which, in test [3], the Kd is 1.41 µM, the koff is 0.00058 s⁻¹ and the kon worked out at 408 M⁻¹ s⁻¹.
